Source: patent US20210324096A1 (Genmab, published 2021)

Key:
DR5ECD-FcHistag [1] = biological target: T1, DR5ECD-FcHistag (human); test: crossblock sandwich ELISA, antibody coated, competitor IgG1-DR5-CONA-K409R
T1 construct: 453 is the counted length of the printed entry; also called DR5ECD-FcHisCtag; DRSECD-FcHistag

DR5ECD-FcHistag [2] = biological target: T1, DR5ECD-FcHistag; test: crossblock sandwich ELISA, antibody coated, competitor IgG1-DR5-chTRA8-F405L
[3] = biological target: T2, murine (Mus musculus) DR5, full-length (mouse, UniProt Q9QZM4 53-381); test: flow cytometry on transfected CHO cells (FIG. 5D)
T2 construct: also called mouse DR5

DR5ECD-FcHistag [4] = biological target: T1, DR5ECD-FcHistag; test: crossblock sandwich ELISA, antibody coated, competitor IgG1-hDR5-01-E430G
[5] = biological target: T3, cynomolgus monkey DR5 protein with deletion of amino acids 185-213 and death domain loss-of-function mutation … (cynomolgus monkey (Macaca fascicularis)); test: flow cytometry on cynomolgus DR5-transfected CHO cells, four experiments (SD 0.084)
T3 construct: Transiently expressed on CHO cells; also called Cyno DR5Mfdel-K420N; cynomolgus DR5-transfected CHO
T3 chain: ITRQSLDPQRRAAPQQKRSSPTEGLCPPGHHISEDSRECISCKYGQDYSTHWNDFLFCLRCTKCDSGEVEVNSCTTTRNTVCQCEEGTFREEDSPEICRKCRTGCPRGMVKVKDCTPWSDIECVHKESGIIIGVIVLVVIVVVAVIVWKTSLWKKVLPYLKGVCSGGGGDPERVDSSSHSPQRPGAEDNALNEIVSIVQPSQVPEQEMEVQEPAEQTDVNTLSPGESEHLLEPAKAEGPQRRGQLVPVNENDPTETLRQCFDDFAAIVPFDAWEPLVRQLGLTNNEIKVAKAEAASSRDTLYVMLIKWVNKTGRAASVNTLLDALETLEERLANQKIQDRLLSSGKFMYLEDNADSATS

[6] = biological target: T4, human DR5 (death receptor 5), full-length (human, UniProt O14763 56-440); test: flow cytometry on HCT 116 cells
T4 construct: also called TRAILR2; CD262

B1: IgG1-DR5-chTRA8-F405L (antibody, name in EU numbering, V domains shown)
VH: EVMLVESGGGLVKPGGSLKLSCAASGFTFSSYVMSWVRQTPEKRLEWVATISSGGSYTYYPDSVKGRFTISRDNAKNTLYLQMSSLRSEDTAMYYCARRGDSMITTDYWGQGTTLTVSS
VL: DIVMTQSHKFMSTSVGDRVSITCKASQDVGTAVAWYQQKPGQSPKLLIYWASTRHTGVPDRFTGSGSGTDFTLTISNVQSEDLADYFCQQYSSYRTFGGGTKLEIKR
notes: F405L is counted by EU numbering; also called IgG1-chTRA8-F405L
Does B1 bind (DR5ECD-FcHistag [1])?
Result: binds

B2: IgG1-DR5-CONA-K409R (antibody, V domains shown)
VH: QVQLQESGPGLVKPSQTLSLTCTVSGGSISSGDYFWSWIRQLPGKGLECIGHIHNSGTTYYNPSLKSRVTISVDTSKKQFSLRLSSVTAADTAVYYCARDRGGDYYYGMDVWGQGTTVTVSS
VL: EIVLTQSPGTLSLSPGERATLSCRASQGISRSYLAWYQQKPGQAPSLLIYGASSRATGIPDRFSGSGSGTDFTLTISRLEPEDFAVYYCQQFGSSPWTFGQGTKVEIK
notes: Expressed as IgG1,kappa with K409R (EU); also called IgG1-CONA-K409R; conatumumab variant
Does B2 bind (DR5ECD-FcHistag [2])?
Result: binds

B3: IgG1-hDR5-05-F405L (antibody, name in EU numbering)
heavy: not shown
light: DIQLTQSPSSLSASVGDRVTITCSASSSVSYMYWYQQKPGKAPKPWIYRTSNLASGVPSRFSGSGSGTDFTLTISSLQPEDFATYYCQQYHSYPPTFGGGTKVEIKRTVAAPSVFIFPPSDEQLKSGTASVVCLLNNFYPREAKVQWKVDNALQSGNSQESVTEQDSKDSTYSLSSTLTLSKADYEKHKVYACEVTHQGLSSPVTKSFNRGEC
notes: IgG1,kappa; F405L is counted by EU numbering, not on the entry; also called humanized DR5-05
Does B3 bind [3]?
Result: no binding (tested: 10 µg/mL)

B4: IgG1-hDR5-05-E430G (antibody)
heavy: not shown
light: DIQLTQSPSSLSASVGDRVTITCSASSSVSYMYWYQQKPGKAPKPWIYRTSNLASGVPSRFSGSGSGTDFTLTISSLQPEDFATYYCQQYHSYPPTFGGGTKVEIKRTVAAPSVFIFPPSDEQLKSGTASVVCLLNNFYPREAKVQWKVDNALQSGNSQESVTEQDSKDSTYSLSSTLTLSKADYEKHKVYACEVTHQGLSSPVTKSFNRGEC
notes: IgG1,kappa
Does B4 bind (DR5ECD-FcHistag [4])?
Result: binds

What about the EC50 [5] of the same binder?
The EC50 was 0.17 µg/mL.

B5: IgG1-hDR5-05-N55D-F405L (antibody, V domains shown)
VH: QVQLVQSGAEVKKPGASVKVSCKASGFNIKDTHMHWVRQAPGQRLEWIGRIDPADGNTEYDQKFQGRVTITVDTSASTAYMELSSLRSEDTAVYYCARWGTNVYFAYWGQGTLVTVSS
VL: DIQLTQSPSSLSASVGDRVTITCSASSSVSYMYWYQQKPGKAPKPWIYRTSNLASGVPSRFSGSGSGTDFTLTISSLQPEDFATYYCQQYHSYPPTFGGGTKVEIKR
notes: IgG1,kappa; deamidation-mimicking variant
Does B5 bind [6]?
Result: binds
